Results on 1 molecule are retold here after paper PMC10576442, “Cullin‐associated and neddylation‐dissociated 1 regulate reprogramming of lipid metabolism through SKP1‐Cullin‐1‐F‐box^FBXO11‐mediated heterogeneous nuclear ribonucleoprotein A2/B1 ubiquitination and promote hepatocellular carcinoma” (Clinical and Translational Medicine, 2023).

This assay has as its target T1, HA-FBXO11 fusion protein expressed in E. coli (UniProt Q86XK2 1-927).
T1 construct: FBXO11 with an HA tag, expressed in E. coli; The methods of the GST pull-down speak of total cell lysates, the results of purified proteins from E. coli; source: E. coli, purified
T1 sequence (looked up): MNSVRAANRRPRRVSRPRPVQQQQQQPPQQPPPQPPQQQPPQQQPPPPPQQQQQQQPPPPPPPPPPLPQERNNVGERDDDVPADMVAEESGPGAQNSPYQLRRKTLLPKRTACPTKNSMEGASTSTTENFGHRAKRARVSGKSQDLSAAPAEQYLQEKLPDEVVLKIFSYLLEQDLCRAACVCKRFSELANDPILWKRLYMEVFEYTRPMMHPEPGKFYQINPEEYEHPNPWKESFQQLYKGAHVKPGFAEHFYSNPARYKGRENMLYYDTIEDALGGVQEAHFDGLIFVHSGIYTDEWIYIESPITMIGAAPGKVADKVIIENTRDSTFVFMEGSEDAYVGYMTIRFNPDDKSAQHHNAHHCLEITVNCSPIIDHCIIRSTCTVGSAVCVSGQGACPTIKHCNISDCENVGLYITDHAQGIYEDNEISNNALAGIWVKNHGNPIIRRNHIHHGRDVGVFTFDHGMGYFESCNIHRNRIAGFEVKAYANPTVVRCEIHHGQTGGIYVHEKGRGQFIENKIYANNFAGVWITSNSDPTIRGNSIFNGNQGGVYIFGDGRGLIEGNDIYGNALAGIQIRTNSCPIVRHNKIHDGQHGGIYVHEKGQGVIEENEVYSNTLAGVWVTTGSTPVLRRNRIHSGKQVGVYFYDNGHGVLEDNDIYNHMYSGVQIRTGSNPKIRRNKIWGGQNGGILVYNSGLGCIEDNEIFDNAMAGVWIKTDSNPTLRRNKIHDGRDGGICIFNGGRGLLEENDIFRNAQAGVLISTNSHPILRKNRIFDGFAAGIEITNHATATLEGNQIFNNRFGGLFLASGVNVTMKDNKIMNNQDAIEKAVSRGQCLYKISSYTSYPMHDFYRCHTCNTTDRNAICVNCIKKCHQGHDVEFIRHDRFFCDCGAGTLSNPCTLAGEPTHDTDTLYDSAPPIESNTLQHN
Put plainly: pull-down; GST pull-down (Magne GST pull-down system), GST-hnRNPA2B1 immobilised on magnetic beads, overnight at 4 °C, HA-FBXO11 expressed in E. coli, western blot. The conditions noted are these: both partners purified. Background: Immunoblotting shows a protein as a band on a membrane.

B1: GST-hnRNPA2B1 (natural protein, UniProt P22626 1-353, looked up)
chain: MEKTLETVPLERKKREKEQFRKLFIGGLSFETTEESLRNYYEQWGKLTDCVVMRDPASKRSRGFGFVTFSSMAEVDAAMAARPHSIDGRVVEPKRAVAREESGKPGAHVTVKKLFVGGIKEDTEEHHLRDYFEEYGKIDTIEIITDRQSGKKRGFGFVTFDDHDPVDKIVLQKYHTINGHNAEVRKALSRQEMQEVQSSRSGRGGNFGFGDSRGGGGNFGPGPGSNFRGGSDGYGSGRGFGDGYNGYGGGPGGGNFGGSPGYGGGRGGYGGGGPGYGNQGGGYGGGYDNYGGGNYGSGNYNDFGNYNQQPSNYGPMKSGNFGGSRNMGGPYGGGNYGPGGSGGSGGYGGRSRY
notes: hnRNPA2B1 as a GST fusion protein; source: E. coli BL21 (DE3), purified (GST-tag purification resin)
Take B1: the binding result is recorded as “binds”.
